Reference: the domain aggregation screens of Martell et al. (2025)

assay: soluble fraction after stress (log2 fold change); higher = more stays soluble; pooled small domains, quantitative proteomics; conditions: stress: pH 4
Procedure, shortened: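 Pooled custom libraries of small protein domains were subjected to pH 4 and measured by high-throughput quantitative proteomics. The log2 fold change in soluble amount per domain is reported, higher values meaning more remained soluble. This is used as a measure of aggregation propensity.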

Sequence	soluble fraction (log2)
HMGGHLAYGFSRRFGLLIDEQQGEPVIIARPDYSPVHYAEARRIVGQPAALRVVDEQAFNQLLQSQQESGA	-0.383
HMELTDSLTENAKKLYSVLTTEPRHIDDLSEEAKLSSADTLAALTELELYSLVALSEGKHYYK	-1.05
HMKAKTYTVQYIDEGKIIKEEELEEGSIINAPEVTKEGHTFIGWYEGEEKYDVYEPITRNLILESKNEIN	-0.989
HMTKQDYLTALQQELNKNAVADAEDIVSEYEQHFQFKLADGFTEEEIAAKLGAPAQIALQFAG	-1.64
HMNETNKMPNLVNQTDSSAIAQLNAMELGLKITTKEESSETVLAGYVIRTEPAADTELTKNQAVTVYVS	0.0693
HMNMEYQKAINHIVQMVKDGQLIVGSKIPSERDLSESLGIGRNSTREAISILRGMGLVESRHGSGNYIAKD	0.22
HMFPQVEVQLIYSYKSDRILNKMLKEFNVVILNQVFKDDILTSFHMNYSLVNQLITKIKSYPDISYKIIN	-0.89
HMAPASADQLIDQLNEKVKAKDDKGVAALLTAAQTKMAELAQKDPKEAQAYVAKLQQWMQSNSENIKAALK	0.204
HMETGFADTLRKFRKEADMTQEKLAEALGVTTGAVYKWENGRSTPEVRLLVEMADLFGTSVDALLDYKVR	-0.723
HMESMIGSLRGRLLELFGDGEVLIEVGGVGYRVIVTPTTTVRLGDVGGDVFVHVHHHIREADQTLYGF	-0.722
HMELTKAELEVMQILWKLKKAFVGDILDRMVEPKPAYNTVSTVVRLLEKKGVVGHESFGKSHRYYPL	-0.0549
HMADEGFRQTVLAVLARWESKIHHGQYNALKAKVMNGNWSSFVKQVVKFQGKFIHPDAAKELLGLFG	-1.17
HMTMTIEITVNGKTKTLVAELSLADLLRDLGMTKGRIAVELNGHIVPRSQFSSKTISNLDSIEIVQ	0.138
HMSPPVIQQGQDVRLIYKGTGFAVSNEGKALNTAADGQVARARTGGGQTVSGIARPGGIIEIT	0.103
HMTAGTTALNKLQQGMSTQQVQAALGTPSDRTVKESGVELWKYYYPYENMLLYLKFRDGHLVSFGTN	-0.244
HMKLIRIPFILTEGPDSQKITIDVDGDEEFRLGDVFEEDDKLWTVNQILVSGERKAKRSMAGEVMRISALR	-0.696
HMGNLPPAVINARIKVSPAGRGVFVGFDKGSTSTEAKYADAIRGYLPNIEFNKDDHESVVTVPFNFR	-0.0258
HMQSQIAQLYNPLLGYVKKRINSREDAEDLTQDIFLKLSKSNKDGVDNLKSWLYTIAKNTITDYYRKKKII	-0.0414
HMIEESTVPDLKGKSQEDAIKLLEDANLKYQIVEEESKKIEAGYVISQETDANKKVNAGDTVIIHVST	-0.0907
HMETIGENIKTYRQKKGYTQEEVANRLHVTRQTISKWEKNYSIPDAEVLVKLADVLEVQTSQLLGV	≥ 0.43
HMEAGTEYVERAADYIRSHFQEDLTVSKLALYVGLNRSYLTTVFQNTLHVSPQQFLMRFRMERAAQLLD	-0.302
HMGDVKLNAIYNFLKEFSALNGFPPSVREIGAKFGIKSTSTVHYYLEKLKQSGVIQQEENKKRAVVIN	-0.446
HMKNIMRQWIELEPDQGKIRSKLYSLDRVVEETTNEVGMIKLLLEIDEKELNNLVSHNDIRLV	-0.625
HMGEMTDFETLRDMYLTGQIWNIDDLIEANGVEGRIVRRGTNYIAFNDRDGKVHKAWLHEVTINE	-1.39
HMTGEEVLIMLGEKMKLIRNYNGYSQRQIAEILKIERSTYASYETGRNRPDIFAVQRFAKIFNVSVDYIL	-0.877

Sequence	soluble fraction (log2)
HMESGSSKINQDILETFTRGKKSLSISDISRLSGHHRHTVARYLDNLVSSGKLEMRQHGQKKKYYLSDIQP	0.0709
HMGPTGGLTPHIAIADKRASEAIEFYKQAFGAVEQVRMPAEDGVRLMHAHLLVNGSSLMMHDDFPEYSGQ	0.0087
HMDPFVILGISKDSSQSEILEAYKTKRAYYQEHVFDEGDQGAQAARMLGQLDDAYQQAMELSHE	0.139
HMGFAEFWLAYPKKVGKGEAERKWKTLKPDAGAVLSAVKRQSASEQWRKDGGRYIPNPATWLHQRRWE	0.243
HMPEPAPALPAKTRVSIRRETGGIIWHEGAWTISPPIRAYDGRWYVAVTTARKGIEFVPVSSVIRS	-0.0262
HMPSQLPLAFARRHGVLLRGFSNGLAQLTVRPEVSTLSLAETRRHLGVPLALEKVTTERFDQLLREAYEA	-0.152
HMLSDEDMMELAIIENLQRENLNPIEEARAYESLIDKGFTHTEIADKMGKSRPYISNSIRLLSL	-1.38
HMRAMWENLFFQYKEGFLPEEYYKQGIATGIRLAGPKFVEMNIPMQKEFEDEVHRLLAEHEKSVK	-0.795
HMHRGTPASIIAAAKQYLTGGQTVELYEREGGPWTFRLRTYLSETPYPEKVRASVEALKPAGVVFLYELQS	-0.112
HMSLLQDRQRHEALAALGYYRGSVSAAWGAASVEALKAAQAALGVEVDGKWGPKTEDVIQAALGT	-0.453
HMDPTIAAIRKKLKNWTIVEVHMTREELEQAVIDGKVDVFLSSAGFYRRLVRFGARDLATAMSPAYPD	-0.151
HMALPPPELRGATGEAVTALRPAGIALIQGKRYDVLAEGGEWIAAGAAVRVRDIRNGHLIVSDA	0.166
HMAPAYELTEEETKIIEILKANENIDLNELKSQAALSGKKWDKSMKNLAKYNLTKVTVDGDAKTVAYLA	-0.516
HMLERKPVLVASRDLPALAVIGKDDLSVELLRTAPVGSYDRPEALLGKRVWVAVPAGSILSAATLEP	-0.0428
HMHETMGQIIKRLRKERGLTQESLAERLGVTFQAVSKWETDAGMPDVSQIVPLANAFGVRTDVLFGLEGRD	0.187
HMGALAITPDFVGQTREEAERFLRDLDLSFDIGGKGDRILRQEPVAGQRMNLDQPMKLWVGSMNA	-0.313
HMTHAISKTYAVTGEQLKNGFTLTHTFANGSTRRVDVYPGSRSGKVIAVRNTTDDTTEWIRIVEG	-0.0152
HMPKELAPYDILARYYLTVNNSKQSIALLEQYLDKAGSAPAALKAKLLLAGILYPSGNKERAEKLVEEVIK	-0.136
HMQVTDTGTIEGEIDKVLAANPDRVTEYHDGKEKILGWFVGQVMQTTKGKANPQMVNQLFLEKLK	-0.00465
HMKLSLKTQVKEYLLSYIRDKKLQPGDRLLTQRELAEMLHTSQKVAQMALNSLEEEGIIIRRLGSGSFLAR	-0.227
HMRSFGTLRRLPSGRYQASYAGPDLRRHAAPTTFETKLDAEGWLRDEHRMIERDEWTAPAARSQLK	0.0606
HMEIVSTEEKIKRAAEQVFLLRGLEGARMQEIADVAGINKAMLHYYFRNKETLFDVILSEKL	-1.14
HMENVMLRNFAIQATEAGVIKLLEDQRTFVWGSNNKKFMTVPFDEHPYSAMAAFFKTDEGLEIYKSIEKKF	-1.43
HMNNLELSEEEKSVLTIIEKEGLIELDKLKTKLELSNKKWDKTLKFLTKNKLAKVVKNDNGLFVEL	0.0993
HMGEAIPVPDIRHKSQADAERLLQDQGLAMMVTDTGYVKTLPANYILEQIPVAGEKVKSGHVVYVIINSG	0.0317

Sequence	soluble fraction (log2)
HMGFDTVVEKVLGLITSRPMTSRDIQMTLGRSREHTSRLMNRLYKEGLVDRNTSSKPFSYIITEKGREKI	0.424
HMNFDLDSFKQRMTLDGLYFGNEKQDVIALNNLSERYQLTWFDVYQLAKETSSNHKILPKRILVKLQQ	0.158
HMQPADYSDLYAAAKSAGEADMRAAFALTDKQERTAAVNAARETIKAALSEEQLADANLGSALKKLEAGV	-0.261
HMKPTVKKLLAALPELRSGQPLHLSVATRKLRDAGLLGKNASSPTLFRNYVAQFELIPENQPNAVRYR	0.268
HMNLSAREWTSADGSRTFQGELTGFQDGKVKVRRSDGKSLVFAIELLSESDQQFIKTNQLVIAKKDED	-0.752
HMRYWVKSETDFLIENRGKYSYQEFADMLGRSYAVVYDKMHQLKIDYTKEELEIFDEKHKAQMREKQQR	-0.665
HMENFKVFMKAVQEVSPVPVRFDEISSGAKGYYSNTEKEIVIQNGMSESQTMKTGIHEVTHAMLHDRDF	0.22
HMDRVDGWLHDGKLYLRVVDYKTGKKSFDLAELRYGLGLQMLLYLFTLKEEGQMLFGGHEIVPAGVL	-0.282
HMFAQDKKFITYKVKEGETVQSISKALSITPYDLLKLNPDIKDNVSQDDLLIIPNKQYDPLGDI	0.421
HMGRRRAAPQEPLRQFPASPVTGQPIKLLLGQYGPYVTDGTTNASLPKGSSPDELTFEQATQLLAERALRG	0.0322
HMNHHTEQQLKALSNKVKDHRMRMRLLAVAHFKAGKNKADVARTLNVSRRMVNEWVANYFKGGVSALES	-0.047
HMSGSKEQQIVILNNILERQLQAFGLQGNREFPMVTLKNIYNSLSKIIENAGLKNVENYFVNPEQGKQM	-0.394
HMHPEETVNLILDAAFRLFLEKGYEHTSIQDIIGQLGGLSKGAIYHHFNSKEDILIAVTDRMTA	-1.67
HMRLYTQDVAVLNRDVIQGEVITSDMVTTVNVHKRTVPTGALNLSEIPGNVAKFNIPASIPITASMVTK	-0.171
HMNSIQEQIEKYVYSLAPVTIERYESLKNGDIEDIEFEKLRKSISSKIINEKIDNKKQVAILSHLKKMYSD	-0.472
HMTLTPEQQAARRSEIVDIALRLIAENGFQKTSMREIADLAKMGKSSLYDFFKTKDEIAVYAMEKK	-0.856
HMVSPFQQQIADKVHNEIIAAKFNYDNATNENERLLAQLQAKKARELANQYGLDMSSYGADTTAERS	0.00762
HMSGEPVKSTLPGNVFKILVAVGDSVKKGQRMFVLEAMKMEIDVNAPKDGLVTSIEVQQGQTVANGQILAK	0.181
HMREYEKAVDYVRRMISSGSLNVGDRLPTERELSLELDISRNSTREAMRMLENMGIIVSRHGSGNYISGN	-0.222
HMDVQGFVMDLDKPLDKEPIVEGFELKLEDSLTLVAAVNKDKSINSLFDELSKLGIKVKSMRNPP	-2.11
HMQEERDISFIKIHLEPGHPWRGRALRELMPLKDLLIVMVVRGEDTIVPNGDTRLEEGDLLVLAAYPFEE	-2.57
HMLDLVSIGKRIKAERQKNGLTQEALAERIEVSAHYVYELERGLKAMSVPILLRMSEVLHTSTDYLLF	-0.48
HMEPREALDGLISERGETYASISRLLGRNSAYIQQFIKRGSPARLDQSDIALLALHFDVPVEMLGGKE	0.054
HMGMLATFVTSAKVPDDVVYAITKEVFENLDEFKKLHPALEGLTRETMLEGLTAPIHPGALKYYKEAGLM	-1.32
HMQPASPELNNQEKKVLQALPENEVIHIDELSDKIQIPVGELLTVLLSLEMKETVIQEPGKFFRRR	-0.886
